# Assay results as given in patent US20220332804A1 (CSL INNOVATION, published 2022).
# T1: human C2 L439A (human, UniProt P06681 21-752)
# T1 sequence: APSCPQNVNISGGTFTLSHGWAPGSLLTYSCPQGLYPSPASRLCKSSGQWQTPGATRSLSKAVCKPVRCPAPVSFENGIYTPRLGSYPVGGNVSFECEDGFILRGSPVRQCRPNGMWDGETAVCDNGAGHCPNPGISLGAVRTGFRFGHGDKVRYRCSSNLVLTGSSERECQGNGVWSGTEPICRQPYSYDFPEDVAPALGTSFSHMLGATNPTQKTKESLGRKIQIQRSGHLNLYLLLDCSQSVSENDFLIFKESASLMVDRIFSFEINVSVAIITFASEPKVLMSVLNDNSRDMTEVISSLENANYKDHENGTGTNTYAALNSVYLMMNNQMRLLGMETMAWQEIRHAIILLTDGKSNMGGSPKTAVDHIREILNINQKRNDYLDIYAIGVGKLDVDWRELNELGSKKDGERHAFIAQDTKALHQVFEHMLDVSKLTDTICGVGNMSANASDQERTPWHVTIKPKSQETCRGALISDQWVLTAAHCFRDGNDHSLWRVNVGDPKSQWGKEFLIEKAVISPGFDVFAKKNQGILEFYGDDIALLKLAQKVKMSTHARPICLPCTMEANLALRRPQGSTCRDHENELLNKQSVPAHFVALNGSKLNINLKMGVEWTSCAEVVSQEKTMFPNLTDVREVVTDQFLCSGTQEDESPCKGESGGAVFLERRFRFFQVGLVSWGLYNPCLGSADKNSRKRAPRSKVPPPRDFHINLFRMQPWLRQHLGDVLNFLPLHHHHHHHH
# T2: human C2 E686A (human, UniProt P06681 21-752)
# T2 sequence: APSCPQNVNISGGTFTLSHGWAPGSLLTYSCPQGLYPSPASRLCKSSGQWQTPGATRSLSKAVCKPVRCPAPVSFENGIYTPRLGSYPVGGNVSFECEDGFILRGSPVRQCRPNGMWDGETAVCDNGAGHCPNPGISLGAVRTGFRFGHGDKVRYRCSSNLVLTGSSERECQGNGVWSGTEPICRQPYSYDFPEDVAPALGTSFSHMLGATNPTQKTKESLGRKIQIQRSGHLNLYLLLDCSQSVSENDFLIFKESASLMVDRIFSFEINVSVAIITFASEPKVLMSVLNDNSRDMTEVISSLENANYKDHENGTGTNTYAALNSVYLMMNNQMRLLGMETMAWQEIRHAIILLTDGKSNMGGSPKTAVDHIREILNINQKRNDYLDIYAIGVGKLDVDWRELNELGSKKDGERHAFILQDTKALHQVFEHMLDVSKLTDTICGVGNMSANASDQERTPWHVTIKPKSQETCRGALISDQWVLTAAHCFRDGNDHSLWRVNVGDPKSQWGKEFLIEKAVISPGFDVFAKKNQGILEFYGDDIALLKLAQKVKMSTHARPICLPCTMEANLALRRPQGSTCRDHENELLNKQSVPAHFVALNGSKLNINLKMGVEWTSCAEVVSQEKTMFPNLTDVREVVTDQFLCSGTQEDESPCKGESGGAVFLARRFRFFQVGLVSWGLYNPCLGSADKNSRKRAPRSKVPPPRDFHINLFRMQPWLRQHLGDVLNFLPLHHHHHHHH
# T3: human C2 D404A (human, UniProt P06681 21-752)
# T3 sequence: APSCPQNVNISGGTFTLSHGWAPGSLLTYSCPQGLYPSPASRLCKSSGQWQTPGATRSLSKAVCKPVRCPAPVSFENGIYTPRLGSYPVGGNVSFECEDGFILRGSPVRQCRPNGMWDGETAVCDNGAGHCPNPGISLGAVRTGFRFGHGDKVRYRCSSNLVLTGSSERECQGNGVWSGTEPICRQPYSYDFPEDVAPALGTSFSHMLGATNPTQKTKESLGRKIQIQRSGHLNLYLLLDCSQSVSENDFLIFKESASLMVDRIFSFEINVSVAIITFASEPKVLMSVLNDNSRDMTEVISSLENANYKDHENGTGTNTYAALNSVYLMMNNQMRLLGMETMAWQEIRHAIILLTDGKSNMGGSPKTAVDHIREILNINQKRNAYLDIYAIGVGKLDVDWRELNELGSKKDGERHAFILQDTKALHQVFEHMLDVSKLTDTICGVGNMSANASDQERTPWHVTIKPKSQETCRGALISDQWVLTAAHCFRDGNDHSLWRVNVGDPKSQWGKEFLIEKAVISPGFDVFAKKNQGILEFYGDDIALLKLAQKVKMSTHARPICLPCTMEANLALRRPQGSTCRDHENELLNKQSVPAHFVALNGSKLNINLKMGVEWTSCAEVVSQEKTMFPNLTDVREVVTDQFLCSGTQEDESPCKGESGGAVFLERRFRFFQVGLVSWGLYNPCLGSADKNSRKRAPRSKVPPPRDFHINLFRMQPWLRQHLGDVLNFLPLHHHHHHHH
# T4: human C2 N403A (human, UniProt P06681 21-752)
# T4 sequence: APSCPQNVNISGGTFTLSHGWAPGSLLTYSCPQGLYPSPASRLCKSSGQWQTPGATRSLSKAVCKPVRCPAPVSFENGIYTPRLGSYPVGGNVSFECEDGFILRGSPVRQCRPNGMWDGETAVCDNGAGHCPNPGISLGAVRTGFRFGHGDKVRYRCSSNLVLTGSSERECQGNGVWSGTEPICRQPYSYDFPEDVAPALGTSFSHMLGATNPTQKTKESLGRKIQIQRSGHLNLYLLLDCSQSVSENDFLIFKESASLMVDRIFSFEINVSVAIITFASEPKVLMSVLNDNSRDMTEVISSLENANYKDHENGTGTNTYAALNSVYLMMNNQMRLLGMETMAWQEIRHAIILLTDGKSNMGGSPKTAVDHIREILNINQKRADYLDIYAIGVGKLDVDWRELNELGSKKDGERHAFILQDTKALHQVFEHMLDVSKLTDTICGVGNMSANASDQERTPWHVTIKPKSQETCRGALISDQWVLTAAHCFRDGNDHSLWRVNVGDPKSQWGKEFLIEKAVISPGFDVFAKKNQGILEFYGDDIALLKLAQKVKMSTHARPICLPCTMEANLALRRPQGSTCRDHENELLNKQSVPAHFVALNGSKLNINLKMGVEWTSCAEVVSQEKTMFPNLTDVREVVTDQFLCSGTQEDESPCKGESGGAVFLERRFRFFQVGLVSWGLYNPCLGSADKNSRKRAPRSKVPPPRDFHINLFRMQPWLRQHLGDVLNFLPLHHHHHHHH
# Legend:
# Assay in all cases: SPR, KD relative to WT C2;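 note: biacore SPR at 37 °C, anti-C2 mAbs captured on anti-human IgG chips with alanine or serine point mutants of C2 as analyte, KD from 1:1 fit compared with wild-type C2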
# [1] = target: T1, human C2 L439A
# [2] = target: T2, human C2 E686A
# [3] = target: T3, human C2 D404A
# [4] = target: T4, human C2 N403A
binder,measurement,setting,value
"RF16-242 (antibody, human IgG4 S228P, lambda, V domains shown, pH-dependent anti-C2 antibody from a phage display library) VH: EVQLLQSGAEVKKPGESLKISCKGSGYSFTSYWIGWVRQMPGKGLEWMGIIYPGDSDTRYSPSFQGQVTISADKSISTAYLQWSSLKASDTAMYYCARRGHYGDYFDYWGQGTLVTVSS VL: SYELTQPPSVSVSPGQTARITCSGDALPKKYAYWYHQKSGQAPVLVIYEDRRRPSEIPERFSGSSSGTMATLTITGAQVEDEGVYFCYSRDRAGNQRVFGGGTQLTVLG",Fold diff,[1],24 fold
same,Fold diff,[2],5 fold
same,Fold diff,[3],2 fold
same,Fold diff,[4],1 fold
